According to PMC6992714:

Target: BphP1-iB(GFP) (Rhodopseudomonas palustris | not stated)
Assay: light-induced relocalisation in live cells (epifluorescence microscopy); HeLa co-expressing BphP1-iB(GFP), mVenus-CAAX and mCherry-QPAS1; darkness against 740 nm light (1 mW cm^-2), 37 °C; mCherry signal moves from cytoplasm to plasma membrane

half-time of the relocalisation from cytoplasm to plasma membrane: 33.6 s
Substance: mCherry-QPAS1
